Drawing on the Immune Epitope Database (IEDB), this text covers IC50 and Kd for 16 sequences.

For orientation: IC50 means the concentration at which inhibition is half-maximal. Low readings indicate inhibition by little substance, high ones a need for much substance. The Kd is the concentration at which binding is half-saturated.

The target of assay [1] is HLA-A*24:02. Description: IEDB peptide-MHC binding, purified MHC/competitive/fluorescence; ≥ and ≤ were set here for values at or beyond the usual limits of such assays.
Assay [2] addresses HLA-B*08:01. The description is as above.
Assay [3] deals with HLA-B*07:02. Described as above.
Assay [4] concerns the target HLA-B*15:01. Described as above.
For the next assay, the target named is HLA-B*44:02. Nature of the assay: IEDB peptide-MHC binding, purified MHC/direct/fluorescence; filed as Kd, often an IC50 or EC50 that approximates it; ≥ and ≤ were set here for values at or beyond the usual limits of such assays.
In assay [5] the target is HLA-A*24:02. The description is as above.
The target of assay [6] is HLA-B*07:02. The description is as above.
A further assay has as its target HLA-B*15:09. Described as above.
In assay [7] the target is HLA-A*01:01. The description is as above.
The next assay has as its target HLA-B*58:01. The description is as above.
In the next assay the target is HLA-B*40:01. Described as above.
Assay [8] deals with HLA-B*15:01. The description is as above.
The target of another assay is HLA-B*27:05. The description is as above.
The target in another assay is HLA-B*46:01. Described as above.
For assay [9], the target named is HLA-A*02:01. The assay is described as above.
The next assay addresses HLA-B*18:01. Described as above.
Assay [10] addresses HLA-A*69:01. Described as above.
The target in a further assay is HLA-A*11:01. The description is as above.
Assay [11] concerns the target HLA-A*03:01. The assay is described as above.
The target in a further assay is HLA-A*31:01. Described as above.
The target in another assay is HLA-C*12:03. Described as above.
A further assay concerns the target HLA-B*08:02. The assay is described as above.
For the next assay, the target named is HLA-C*03:03. The assay is described as above.
Assay [12] concerns the target HLA-A*02:12. Described as above. The conditions noted are these: source organism: Ravn virus - Ravn, Kenya, 1987.
Assay [13] has as its target HLA-A*02:01. Description: IEDB peptide-MHC binding, purified MHC/competitive/fluorescence; filed as Kd, often an IC50 or EC50 that approximates it; ≥ and ≤ were set here for values at or beyond the usual limits of such assays.
In another assay the target is HLA-B*51:01. Description: IEDB peptide-MHC binding, purified MHC/direct/fluorescence; filed as Kd, often an IC50 or EC50 that approximates it; ≥ and ≤ were set here for values at or beyond the usual limits of such assays.
For the next assay, the target named is HLA-A*02:03. Nature of the assay: IEDB peptide-MHC binding, purified MHC/competitive/fluorescence; filed as Kd, often an IC50 or EC50 that approximates it; ≥ and ≤ were set here for values at or beyond the usual limits of such assays. The conditions noted are these: source organism: Human immunodeficiency virus 1.
Another assay addresses HLA-A*02:19. The description is as above. The note with it: source organism: Human immunodeficiency virus 1.
The next assay concerns the target HLA-A*02:16. The description is as above. The note with it: source organism: Human immunodeficiency virus 1.
The target in assay [14] is HLA-A*02:12. The assay is described as above. The conditions noted are these: source organism: Human immunodeficiency virus 1.
Assay [15] concerns the target HLA-A*69:01. The assay is described as above. The conditions noted are these: source organism: Human immunodeficiency virus 1.
The next assay deals with HLA-A*02:11. Described as above. The conditions noted are these: source organism: Human immunodeficiency virus 1.
In another assay the target is HLA-A*02:06. Described as above. The conditions noted are these: source organism: Human immunodeficiency virus 1.
For assay [16], the target named is HLA-A*02:01. Nature of the assay: IEDB peptide-MHC binding, purified MHC/competitive/fluorescence; ≥ and ≤ were set here for values at or beyond the usual limits of such assays.
Assay [17] has as its target HLA-A*03:01. Described as above. The conditions noted are these: source organism: Vaccinia virus WR.
In assay [18] the target is HLA-B*08:01. Nature of the assay: IEDB peptide-MHC binding, purified MHC/direct/fluorescence; filed as Kd, often an IC50 or EC50 that approximates it; ≥ and ≤ were set here for values at or beyond the usual limits of such assays. The conditions noted are these: source organism: Vibrio parahaemolyticus AQ3810.
The target of assay [19] is HLA-A*01:01. Description: IEDB peptide-MHC binding, purified MHC/competitive/fluorescence; filed as Kd, often an IC50 or EC50 that approximates it; ≥ and ≤ were set here for values at or beyond the usual limits of such assays. The note with it: source organism: Influenza A virus (A/Harbin/1/1988(H1N2)).
A further assay addresses HLA-C*14:02. Nature of the assay: IEDB peptide-MHC binding, purified MHC/direct/fluorescence; filed as Kd, often an IC50 or EC50 that approximates it; ≥ and ≤ were set here for values at or beyond the usual limits of such assays. The conditions noted are these: source organism: Human immunodeficiency virus 1.
[20] abbreviates: source organism: Zaire ebolavirus.
Where [21] appears, read: source organism: Rickettsia bellii.
Where [22] appears, read: source organism: Coxiella burnetii.
[23] abbreviates: source organism: Marburg virus - Musoke, Kenya, 1980.
The mark [24] stands for this setting: source organism: Influenza A virus (A/Hong Kong/532/1997(H5N1)).
Where [25] appears, read: source organism: dengue virus type 4.
Setting [26] is: source organism: Vaccinia virus Copenhagen.
[27] abbreviates: source organism: Vaccinia virus WR.
[28] abbreviates: source organism: Vibrio parahaemolyticus.
Where [29] appears, read: source organism: Vibrio parahaemolyticus AQ3810.

Regarding IFRLMRTNF, the IC50 with HLA-A*24:02 [1] (setting [20]) stood at 39.8 nM; with HLA-B*08:01 [2] (setting [20]), 55.2 µM; in the assay with HLA-B*07:02 [3] (setting [20]) it was 9.03 µM; with HLA-B*15:01 [4] (setting [20]) it was 2.18 µM.

In the case of NIDPEHLDY, the Kd with HLA-B*44:02 (setting [21]) was ≥ 20 µM; with HLA-A*24:02 [5] (setting [21]) it was ≥ 20 µM; in the assay with HLA-B*07:02 [6] (setting [21]) it was ≥ 20 µM; in the assay with HLA-B*15:09 (source organism: Rickettsia typhi str. Wilmington), ≥ 20 µM; in the assay with HLA-A*01:01 [7] (setting [21]) it was 32.6 nM; with HLA-B*58:01 (setting [21]), ≥ 20 µM. In addition, the Kd in the assay with HLA-B*40:01 (setting [21]), with HLA-B*15:01 [8] (setting [21]), with HLA-B*27:05 (setting [21]), with HLA-B*46:01 (setting [21]), with HLA-A*02:01 [9] (setting [21]) and with HLA-B*18:01 (setting [21]) was ≥ 20 µM each time. Also, the Kd with HLA-A*69:01 [10] (setting [21]), in the assay with HLA-A*11:01 (setting [21]), in the assay with HLA-A*03:01 [11] (setting [21]) and with HLA-A*31:01 (setting [21]) was ≥ 20 µM in each case.

With ARKHHTKID, the IC50 in the assay with HLA-A*24:02 [1] (source organism: Variola virus) came out at 25 nM; with HLA-B*08:01 [2] (source organism: Variola virus), 41.7 µM.

The sequence SQAPLPCVL returned a Kd in the assay with HLA-C*12:03 (source organism: human gammaherpesvirus 4) of 554 nM.

As for AISRLRTQK, the dissociation constant (Kd) in the assay with HLA-B*44:02 (setting [22]) was ≥ 20 µM; with HLA-A*24:02 [5] (setting [22]), ≥ 20 µM; with HLA-B*07:02 [6] (setting [22]), ≥ 20 µM; in the assay with HLA-A*01:01 [7] (setting [22]) it was ≥ 20000 nM; with HLA-B*58:01 (setting [22]) it was ≥ 20 µM; in the assay with HLA-B*40:01 (setting [22]), ≥ 20 µM. The dissociation constant (Kd) with HLA-B*15:01 [8] (setting [22]), with HLA-B*27:05 (setting [22]), with HLA-B*46:01 (setting [22]), in the assay with HLA-A*02:01 [9] (setting [22]), with HLA-B*08:02 (source organism: Coxiella burnetii Q321) and with HLA-B*18:01 (setting [22]) was ≥ 20 µM throughout. Also, the Kd with HLA-A*69:01 [10] (setting [22]) was ≥ 20 µM; in the assay with HLA-A*11:01 (setting [22]), 0.0995 µM; with HLA-A*03:01 [11] (setting [22]), 0.386 µM; with HLA-A*31:01 (setting [22]) it was 0.344 µM.

As to YMQQVSEGL, the Kd with HLA-C*03:03 (source organism: Orthomarburgvirus marburgense) is 498 nM; with HLA-A*02:12 [12], 2 nM; with HLA-A*02:01 [9] (setting [23]), 0.153 µM; in the assay with HLA-A*69:01 [10] (setting [23]), 1.38 µM.

As for YLMAWKQVL, the Kd in the assay with HLA-C*12:03 (setting [24]) was found to be 22 nM; with HLA-A*02:01 [13] (setting [24]) it was 0.4 nM.

On to ILRNPGFAL, for which the figures for the Kd in the assay with HLA-C*03:03 (setting [25]) and with HLA-B*51:01 (setting [25]) were 211 nM and ≥ 20000 nM, respectively.

With SLADQLIHL, the Kd with HLA-A*02:03 was found to be 0.86 nM; with HLA-A*02:19, 4.67 nM; with HLA-A*02:16 it was 0.6 nM; with HLA-A*02:12 [14], 2.85 nM; with HLA-A*02:01 [13] (source organism: Human immunodeficiency virus 1), 42.5 nM; in the assay with HLA-A*69:01 [15], 277 nM. Besides, the Kd with HLA-A*02:11 was 0.145 nM; in the assay with HLA-A*02:06, ≤ 0.1 nM.

LAKAIITPI: the concentration for half-maximal inhibition (IC50) with HLA-A*24:02 [1] (setting [26]) is 6280 nM; in the assay with HLA-B*08:01 [2] (setting [26]) it was ≥ 138 µM; with HLA-B*07:02 [3] (setting [26]), 56.1 µM; with HLA-B*15:01 [4] (setting [26]), 24.5 µM; with HLA-A*02:01 [16] (setting [26]), 13.7 µM.

FPQLSAIAL: the IC50 in the assay with HLA-A*24:02 [1] (setting [20]) was 17800 nM; with HLA-B*08:01 [2] (setting [20]), ≥ 129 µM; with HLA-B*07:02 [3] (setting [20]), 13.6 µM; in the assay with HLA-A*02:01 [16] (setting [20]), ≥ 179 µM.

In the case of RLPKRSVML, the concentration for half-maximal inhibition (IC50) with HLA-A*24:02 [1] (setting [27]) is 52.1 nM; in the assay with HLA-B*08:01 [2] (setting [27]), 15.2 µM; in the assay with HLA-B*07:02 [3] (setting [27]), 7.67 µM; with HLA-B*15:01 [4] (setting [27]), 12.7 µM; in the assay with HLA-A*02:01 [16] (setting [27]), 2.65 µM; with HLA-A*03:01 [17], 34.1 µM.

Regarding MLDQFGVSY, the Kd with HLA-B*44:02 (setting [28]) is ≥ 20 µM; with HLA-A*24:02 [5] (setting [28]) it was ≥ 20 µM; with HLA-B*08:01 [18] it was ≥ 20 µM; with HLA-B*07:02 [6] (setting [28]), ≥ 20 µM; in the assay with HLA-B*15:09 (setting [29]), ≥ 20 µM; with HLA-A*01:01 [7] (setting [28]) it was 21 nM. The Kd in the assay with HLA-B*58:01 (setting [28]) is ≥ 20 µM; in the assay with HLA-B*40:01 (setting [28]), ≥ 20 µM; with HLA-B*15:01 [8] (setting [28]), 0.143 µM; with HLA-B*27:05 (setting [28]) it was ≥ 20 µM; with HLA-A*02:01 [9] (setting [28]), ≥ 20 µM; with HLA-B*08:02 (setting [29]) it was ≥ 20 µM. In addition, the Kd with HLA-A*69:01 [10] (setting [28]), with HLA-A*11:01 (setting [28]), in the assay with HLA-A*03:01 [11] (setting [28]) and in the assay with HLA-A*31:01 (setting [28]) was ≥ 20 µM throughout.

Turning to YVSVVSSHY, the dissociation constant Kd with HLA-A*01:01 [19] is 549 nM.

For AFHHVAREL, the Kd in the assay with HLA-C*14:02 was ≤ 1 nM.

In the case of LANYAFFAI, the Kd with HLA-C*03:03 (source organism: Streptococcus pneumoniae R6) was ≤ 1 nM; with HLA-B*51:01 (source organism: Streptococcus pneumoniae), 230 nM.
